Experimental data from the supplement of paper PMC10567573.

B1: PBXIP1 (parent)
chain: FGEDGIFRHDRLRFRDFVDALEDS
B2: C8orf76 (parent)
chain: YCAKLCEPQWFYEETESSDDVEVL

Variants of: B1
Assay: protein stability index of a GFP-peptide fusion (GPS, HEK-293T) (PSI 1-6); higher = more stable
Details: c terminus: a fixed tail appended
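Further: lentivirally expressed fusions sorted by FACS into six bins by GFP to DsRed ratio, PSI derived from sequencing read proportions per bin multiplied by bin number.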

Protein stability index: each site, then its substitutions
G2: Q 2.66 | F 2.75 | M 2.91 | S 2.48 | I 1.97 | H 2.09 | V 2.26 | K 2.81 | T 2.35 | N 3.09 | E 3.73 | L 2.96 | C 2.83 | D 3.36 | Y 3.09 | P 2.61 | W 2.95 | R 2.69 | A 1.63
I6: N 3.46 | E 4.52 | M 1.97 | P 3.18 | Q 3.86 | S 2.74 | G 3.65 | H 4 | A 2.23 | R 3.72 | T 2.95 | F 1.33 | V 2.76 | K 2.7 | C 2.33 | D 4.38 | L 2.3
D4: R 2.74 | H 1.89 | I 1.73 | E 3.08 | V 2.76 | N 1.98 | F 1.74 | G 1.17 | P 1.94 | W 1.72 | Q 1.83 | M 1.79 | K 1.82 | C 2.52 | A 1.62 | Y 1.73 | S 1.77 | T 2.24 | L 1.99
E3: Y 3.04 | D 3.01 | S 2.02 | H 2.89 | W 2.18 | T 2.28 | V 2.05 | I 2.91 | F 2.18 | G 2.11 | M 2.45 | Q 2.91 | C 2.17 | A 2.75 | P 2.28 | K 2.52 | N 1.99 | L 2.44 | R 3.02
G5: W 1.4 | D 3.5 | I 2.86 | Y 2.59 | M 3.23 | P 3.37 | S 1.95 | T 2.88 | E 3.68 | F 1.66 | V 3.19 | K 2.12 | N 2.34 | H 3.17 | R 3.02 | A 3.02 | C 2.67 | Q 3.23 | L 2.54
F1: G 3.59 | T 3.08 | S 3.74 | M 3.24 | C 2.39 | L 3.14 | K 2.64 | R 3.78 | I 3.6 | Y 2.72 | H 3.76 | N 3.81 | D 4.29 | P 4.16 | A 4.02 | V 3.77 | E 4.29 | W 3.1 | Q 4.12

Variants of: B2
Assay: as above
Details: c terminus: a fixed tail appended

Protein stability index of substitutions, site by site:
E22: F 1.6 | Y 1.63 | H 2.06 | P 2.33 | N 2.14 | L 1.38 | T 2.07 | I 2.03 | K 2.21 | D 1.98 | R 2.14 | M 1.49 | W 2.28 | Q 2.61 | S 2.31 | V 1.36 | G 2.31
V23: K 1.96 | T 2.17 | G 2.39 | N 3.18 | H 2.62 | Y 2.78 | P 2.87 | M 2.48 | L 2.05 | I 2.08 | R 2.44 | S 2.53 | E 2.33 | Q 2.8 | W 1.98 | C 2.47 | D 2.41 | A 2.68 | F 2.45
L24: T 2.11 | A 2.45 | W 1.85 | R 2.78 | Q 1.86 | K 3 | F 2.43 | P 2.69 | E 2.62 | C 2.9 | M 2.65 | H 2.15 | Y 1.76 | N 2.36 | S 2.66 | V 2.31 | G 2.54 | D 2.56 | I 2.73
